# Test results: article PMC6602975
# Legend:
# [1] = target: Unmodified nucleosome core particle (X. laevis histone octamer on 147 bp Widom-601 DNA) (X. laevis); test: native gel or EMSA; increasing amounts of Orc1 or Sir3 proteins with 50 or 25 nM nucleosomes; 10 mM Tris pH 7.5, 50 mM NaCl, 2.5% glycerol, 1 mM DTT; room temperature, 30 min; native PAGE 6% (Sir3) or 8% (Orc1), 0.2X TBE; decrease of free nucleosome; apparent KD from a Hill fit
# [2] = target: H4K16ac nucleosome (X. laevis | not stated); test: as above
substance,measurement,setting,value
Orc1 BAH A2P (from UniProt P54784 1-214) (domain or fragment),fold loss of affinity compared with the WT domain,[1],2 fold
Orc1 BAH E95K (from UniProt P54784 1-214) (domain or fragment),fold loss of affinity,[1],4 fold
Orc1 BAH R202E (from UniProt P54784 1-214) (domain or fragment),fold decrease in affinity compared with the WT domain,[1],4.9 fold
Sir3 BAH D205Q (from UniProt P06701 1-214) (domain or fragment),fold difference in affinity compared with unmodified nucleosome,[2],4 fold
